Assay results from US20230331869A1.

Assays:
Test in all cases: fibrinogen 15mer peptide array
[1] = substrate: T1, FIBB 319-333
T1 sequence (peptide): GDKVKAHYGGFTVQN

[2] = substrate: T2, FIBB 71-85
T2 sequence (peptide): DLGVLCPTGCQLQEA

[3] = substrate: T3, FIBB 427-431
T3 sequence (peptide): AKHGTDDGVVWMNWK

[4] = substrate: T4, FIBB 395-409
T4 sequence (peptide): SKEDGGGWWYNRCHA

[5] = substrate: T5, FIBB 63-77
T5 sequence (peptide): GGCLHADPDLGVLCP

[6] = substrate: T6, FIBB 191-205
T6 sequence (peptide): EYCRTPCTVSCNIPV

[7] = substrate: T7, FIBB 139-153
T7 sequence (peptide): VNEYSSELEKHQLYI

[8] = substrate: T8, FIBB 258-262
T8 sequence (peptide): SVDFGRKWDPYKQGF

[9] = substrate: T9, FIBB 391-405
T9 sequence (peptide): RKQCSKEDGGGWWYN

[10] = substrate: T10, FIBB 283-297
T10 sequence (peptide): KNYCGLPGEYWLGND

[11] = substrate: T11, FIBB 407-421
T11 sequence (peptide): CHAANPNGRYYWGGQ

[12] = substrate: T12, FIBB 415-429
T12 sequence (peptide): RYYWGGQYTWDMAKH

[13] = substrate: T13, FIBB 107-121
T13 sequence (peptide): VSQTSSSSFQYMYLL

[14] = substrate: T14, FIBB 315-329
T14 sequence (peptide): EDWKGDKVKAHYGGF

[15] = substrate: T15, FIBB 235-249
T15 sequence (peptide): PYRVYCDMNTENGGW

FIBG 7-21 = target: T16, FIBG 7-21
T16 sequence (peptide): NCCILDERFGSYCPT

FIBA 602-616 = target: T17, FIBA 602-616
T17 sequence (peptide): RGHAKSRPVRGIHTS

FIBA 507-521 = target: T18, FIBA 507-521
T18 sequence (peptide): FPGFFSPMLGEFVSE

FIBG 123-137 = target: T19, FIBG 123-137
T19 sequence (peptide): NLKEKVAQLEAQCQE

FIBG 15-29 = target: T20, FIBG 15-29
T20 sequence (peptide): FGSYCPTTCGIADFL

FIBG 202-216 = target: T21, FIBG 202-216
T21 sequence (peptide): DFKKNWIQYKEGFGH

FIBG 335-349 = target: T22, FIBG 335-349
T22 sequence (peptide): WMNKCHAGHLNGVYY

FIBA 514 528 = target: T23, FIBA 514 528
T23 sequence (peptide): FSPMLGEFVSETESR

FIBG 303-317 = target: T24, FIBG 303-317
T24 sequence (peptide): FFTSHNGMQFSTWDN

FIBG 206-220 = target: T25, FIBG 206-220
T25 sequence (peptide): NWIQYKEGFGHLSPT

FIBA 218-232 = target: T26, FIBA 218-232
T26 sequence (peptide): FKSQLQKVPPEWKAL

FIBG 214-228 = target: T27, FIBG 214-228
T27 sequence (peptide): FGHLSPTGTTEFWLG

FIBG 287-301 = target: T28, FIBG 287-301
T28 sequence (peptide): GDAFDGFDFGDDPSD

B1: antibody G or 45-C1C3 antibody (antibody, V domains shown)
VH: EVQLVESGGGAVQPGRSLRLSCAASGVSFSNIGMHWVRQAPGKGLEWVALISSDGRHTHYADSVKGRFTISRDNSENTLYLQINGLRADDTAVYYCAKGLDTRARYMGKFYTFDYWGQGTLVTVSS
VL: DIQLTQSPSSLSASVGDRVTITCRASQNIGVNLNWYQQRPGKGPKLLVSSTFSLQSGVPSRFSASGAGTNFTLTISSLQPEDYVTYYCQQSYSSPFTFGPGTKVDIK
In the case of B1, the signal intensity (RLU) [1] is reported as 2670 RLU, the signal intensity (RLU) [2] is reported as 2550 RLU and the signal intensity (RLU) [3] is reported as 2640 RLU. The signal intensity (RLU) [4] was 3470 RLU, the signal intensity (RLU) [5] was 2780 RLU and the signal intensity (RLU) [6] was 2790 RLU. For the same binder, the signal intensity (RLU) [7] was 6790 RLU, the signal intensity (RLU) [8] was 6910 RLU and the signal intensity (RLU) [9] was 2980 RLU. For the same binder, the signal intensity (RLU) [10] was 8780 RLU, the signal intensity (RLU) [11] was 9200 RLU and the signal intensity (RLU) [12] was 12900 RLU. It also gave a signal intensity (RLU) [13] of 2930 RLU, a signal intensity (RLU) [14] of 5070 RLU and a signal intensity (RLU) [15] of 3610 RLU. It also gave a signal intensity (RLU) (FIBG 7-21) of 5760 RLU, a signal intensity (RLU) (FIBA 602-616) of 2570 RLU and a signal intensity (RLU) (FIBA 507-521) of 3370 RLU. For the same binder, the signal intensity (RLU) (FIBG 123-137) was 3130 RLU, the signal intensity (RLU) (FIBG 15-29) was 3150 RLU and the signal intensity (RLU) (FIBG 202-216) was 9080 RLU. The signal intensity (RLU) (FIBG 335-349) was 50000 RLU, the signal intensity (RLU) (FIBA 514 528) was 5030 RLU and the signal intensity (RLU) (FIBG 303-317) was 6750 RLU. It also gave a signal intensity (RLU) (FIBG 206-220) of 6580 RLU, a signal intensity (RLU) (FIBA 218-232) of 6880 RLU and a signal intensity (RLU) (FIBG 214-228) of 8260 RLU. The signal intensity (RLU) (FIBG 287-301) was 11400 RLU.
